From US20120083001A1 come the findings set out here.

Where two headings read alike, the source gives them in different places.

Experiment [1] deals with β1 adrenergic receptor (rat) (UniProt P18090). In words: cell-based or functional assay.
Experiment [2] shares this target. As to the kind of experiment: cell-based or functional assay. This is another data set of the same source.

Chain of β1 adrenergic receptor (rat) (P18090 whole entry): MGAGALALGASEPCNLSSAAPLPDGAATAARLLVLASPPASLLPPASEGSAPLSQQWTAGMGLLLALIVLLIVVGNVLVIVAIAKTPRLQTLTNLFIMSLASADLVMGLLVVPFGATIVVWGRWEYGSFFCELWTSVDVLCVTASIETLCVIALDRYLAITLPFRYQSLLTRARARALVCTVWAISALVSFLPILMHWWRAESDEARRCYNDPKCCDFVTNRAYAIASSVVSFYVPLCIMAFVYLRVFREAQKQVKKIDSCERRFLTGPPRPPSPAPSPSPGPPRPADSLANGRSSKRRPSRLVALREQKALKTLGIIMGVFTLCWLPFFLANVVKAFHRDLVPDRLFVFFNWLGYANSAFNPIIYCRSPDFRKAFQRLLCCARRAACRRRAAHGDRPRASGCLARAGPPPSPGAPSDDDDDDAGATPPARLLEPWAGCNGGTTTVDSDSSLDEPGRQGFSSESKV

Consider Gαi (C351G) (from UniProt B2RSH2 2-354), for which, in experiment [1], the Change Level in Current Density [pA/pF] (ISO 30 nM against no ISO) is -16.4 pA/pF; the Current Change Level [nA] was -0.2 nA; the membrane current value immediately after the pulse, ISO not supplied (whole-cell patch clamp) was -0.2 nA; the membrane current value, ISO supplied (whole-cell patch clamp) came to 0.5 nA. For the same substance, the Change Level in Current Density [pA/pF] (ISO 30 nM against no ISO) in experiment [2] was -9.14 pA/pF.
